Data reported in paper PMC6509496, “Crystal structure of the TreS:Pep2 complex, initiating α-glucan synthesis in the GlgE pathway of mycobacteria” (The Journal of Biological Chemistry, 2019).

T1: Mycobacterium smegmatis trehalose synthase (TreS) (M. smegmatis, UniProt A0R6E0 1-593)
T1 construct: Trehalose synthase TreS of M. smegmatis (MSMEG_6515), cloned from genomic DNA with primers from the start codon to the stop codon; concentrations in the ITC count on the monomer; also called Msm TreS; MsTreS; source: E. coli BL21 (DE3), purified (Ni-NTA, HiTrap Q, Sephacryl S-300HR)
T1 sequence (looked up): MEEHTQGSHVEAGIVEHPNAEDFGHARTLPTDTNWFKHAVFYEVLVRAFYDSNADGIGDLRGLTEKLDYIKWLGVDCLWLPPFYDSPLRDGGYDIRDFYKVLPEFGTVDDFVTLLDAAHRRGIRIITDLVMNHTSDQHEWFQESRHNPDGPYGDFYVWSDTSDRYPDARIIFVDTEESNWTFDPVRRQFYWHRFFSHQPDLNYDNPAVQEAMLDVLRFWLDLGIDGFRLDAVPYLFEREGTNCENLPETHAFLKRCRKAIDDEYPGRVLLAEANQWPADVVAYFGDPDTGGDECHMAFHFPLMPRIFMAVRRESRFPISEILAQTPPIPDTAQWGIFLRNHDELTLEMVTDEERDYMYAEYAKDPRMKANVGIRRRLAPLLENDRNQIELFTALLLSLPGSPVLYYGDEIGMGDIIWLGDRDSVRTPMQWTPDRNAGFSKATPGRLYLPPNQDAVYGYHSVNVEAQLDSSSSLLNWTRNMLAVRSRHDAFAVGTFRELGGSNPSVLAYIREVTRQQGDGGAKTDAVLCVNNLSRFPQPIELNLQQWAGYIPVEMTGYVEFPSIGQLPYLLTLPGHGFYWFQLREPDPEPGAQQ

B1: Mycobacterium smegmatis maltokinase (Pep2) (enzyme)
chain: not shown
notes: Maltokinase Pep2 of M. smegmatis (MSMEG_6514); 441 residues; cloned with primers from the start codon to the stop codon; also called Msm Pep2; MsPep2; source: E. coli BL21 (DE3), purified (Ni-NTA, HiTrap Q, Sephacryl S-300HR)
B2: Mycobacterium smegmatis maltokinase (Pep2) (enzyme)
chain: not shown
notes: Maltokinase Pep2 of M. smegmatis, locus MSMEG_6514, 441 residues, cloned from genomic DNA into NdeI/HindIII of pET28a; the printed primers run from the start codon to the stop codon; Monomer by size exclusion; calculated mass 48,800 Da; also called Msm Pep2; MsPep2; source: E. coli BL21 (DE3), purified (Ni-NTA, HiTrap Q, Sephacryl S-300HR)
B3: N-terminally truncated M. smegmatis Pep2 (Pep2-Δ70) (domain or fragment)
chain: not shown
notes: Maltokinase Pep2 of M. smegmatis (MSMEG_6514) with a 70-amino acid N-terminal truncation; the whole protein has 441 residues; The first residue 71 follows from the stated 70-residue truncation; also called Msm Pep2-Δ70; source: E. coli BL21 (DE3), purified (as WT Pep2, NaCl 300 mM before ion exchange)
B4: Mycobacterium smegmatis trehalose synthase (TreS) (enzyme, M. smegmatis, UniProt A0R6E0 1-593, looked up)
chain: T1 sequence (looked up)
notes: Trehalose synthase TreS of M. smegmatis, locus MSMEG_6515, cloned from genomic DNA into NdeI/HindIII of pET28a; the printed primers run from the start codon to the stop codon; calculated tetramer mass 272,000 Da; also called Msm TreS; MSMEG_6515; source: E. coli BL21 (DE3), purified (Ni-NTA, HiTrap Q, Sephacryl S-300HR)
B5: Mycobacterium tuberculosis trehalose synthase (TreS), wild type (enzyme)
chain: MNEAEHSVEHPPVQGSHVEGGVVEHPDAKDFGSAAALPADPTWFKHAVFYEVLVRAFFDASADGSGDLRGLIDRLDYLQWLGIDCIWLPPFYDSPLRDGGYDIRDFYKVLPEFGTVDDFVALVDAAHRRGIRIITDLVMNHTSESHPWFQESRRDPDGPYGDYYVWSDTSERYTDARIIFVDTEESNWSFDPVRRQFYWHRFFSHQPDLNYDNPAVQEAMIDVIRFWLGLGIDGFRLDAVPYLFEREGTNCENLPETHAFLKRVRKVVDDEFPGRVLLAEANQWPGDVVEYFGDPNTGGDECHMAFHFPLMPRIFMAVRRESRFPISEIIAQTPPIPDMAQWGIFLRNHDELTLEMVTDEERDYMYAEYAKDPRMKANVGIRRRLAPLLDNDRNQIELFTALLLSLPGSPVLYYGDEIGMGDVIWLGDRDGVRIPMQWTPDRNAGFSTANPGRLYLPPSQDPVYGYQAVNVEAQRDTSTSLLNFTRTMLAVRRRHPAFAVGAFQELGGSNPSVLAYVRQVAGDDGDTVLCVNNLSRFPQPIELDLQQWTNYTPVELTGHVEFPRIGQVPYLLTLPGHGFYWFQLTTHEVGAPPTCGGERRL
notes: also called Mtb TreS; WT Mtb TreS

Experiments:
[1] = target: T1, Mycobacterium smegmatis trehalose …; test: ITC; Pep2 titrated to 75 uM TreS in the sample chamber, up to a molar ratio [Pep2]/[TreS] of about 1.5; pH 6.5; 200 mM NaCl; 298 K; conditions: both partners purified
[2] = target: T1, Mycobacterium smegmatis trehalose …; test: ITC; Pep2 titrated to 75 uM TreS in the sample chamber, up to a molar ratio [Pep2]/[TreS] of about 1.5; pH 6.5; 300 mM NaCl; 298 K; conditions: both partners purified
[3] = target: T1, Mycobacterium smegmatis trehalose …; test: ITC; Pep2 titrated to 75 uM TreS in the sample chamber, up to a molar ratio [Pep2]/[TreS] of about 1.5; pH 6.5; 400 mM NaCl; 298 K; conditions: both partners purified
[4] = target: B4; test: ITC; Pep2 (500 μM in the syringe) titrated into TreS (75 μM monomer); 50 mM sodium phosphate pH 6.5, 300 mM NaCl, 10% glycerol, 25 °C; conditions: both partners purified
[5] = target: B4; test: ITC; Pep2 (500 μM in the syringe) titrated into TreS (75 μM monomer); 50 mM sodium phosphate pH 7.5, 300 mM NaCl, 10% glycerol, 25 °C; conditions: both partners purified
[6] = target: B4; test: ITC; Pep2 (500 μM in the syringe) titrated into TreS (75 μM monomer); 50 mM sodium phosphate pH 8.5, 300 mM NaCl, 10% glycerol, 25 °C; conditions: both partners purified
[7] = target: B4; test: crystal structure; vapor diffusion of mixtures of M. smegmatis TreS and Pep2 at molar ratios 1:1 to 1:2; 9-10% PEG 8000, 4% glycerol, 200 mM MgCl2, 0.1 M Tris-HCl pH 6.7-7.0; 3.6 Å; conditions: both partners purified
[8] = target: B4; test: AUC; sedimentation equilibrium, 50 mM sodium phosphate pH 6.5, 300 mM NaCl, 10% glycerol, 4 °C; 8000, 9000, 10,000 rpm; TreS alone at 6, 4, 2 μM, 1:1 mixture at 3.75, 2.5, 1.25 μM; single-species model; conditions: both partners purified
[9] = target: B4; test: ITC; Pep2 (500 μM in the syringe) titrated into TreS (75 μM monomer); 50 mM sodium phosphate pH 6.5, 300 mM NaCl, 10% glycerol, 25 °C; conditions: both partners purified; remark: listed apart in the source
[10] = target: the molecule itself; test: AUC; sedimentation equilibrium, 50 mM sodium phosphate pH 6.5, 300 mM NaCl, 10% glycerol, 4 °C; 8000, 9000, 10,000 rpm; TreS alone at 6, 4, 2 μM, 1:1 mixture at 3.75, 2.5, 1.25 μM; single-species model
[11] = target: T2, Mycobacterium tuberculosis maltokinase (Pep2) (M. tuberculosis, UniProt O07177); test: SEC; conditions: both partners purified
T2 construct: also called Mtb Pep2; MtPep2

SEC = target: the molecule itself; test: SEC

B1
Ka [1]: 210000 M⁻¹
Kd [1]: 4.8 µM
stoichiometry N [1]: 0.79 ± 0.015
Ka [2]: 222000 M⁻¹
Kd [2]: 4.5 µM
stoichiometry N [2]: 0.54 ± 0.01
Ka [3]: 210000 M⁻¹
Kd [3]: 4.8 µM
stoichiometry N [3]: 0.58 ± 0.01

B2
Ka [4]: 287000 M⁻¹
Kd [4]: 3.48 µM
dH [4]: -31.3 kcal/mol
stoichiometry N [4]: 0.574 ± 0.007
Ka [5]: 160000 M⁻¹
Kd [5]: 6.25 µM
dH [5]: -18.7 kcal/mol
stoichiometry N [5]: 0.459 ± 0.008
Ka [6]: 28700 M⁻¹
Kd [6]: 34.8 µM
dH [6]: -22.3 kcal/mol
stoichiometry N [6]: 0.22 ± 0.04
stoichiometry N [7]: 1 Pep2 per TreS protomer
stoichiometry N [8]: 2 copies of Pep2 per TreS tetramer

B3
Kd [9]: 28.6 µM
Ka [4]: 35000 M⁻¹
Kd [4]: 26.8 µM
dH [4]: -17.9 kcal/mol
stoichiometry N [4]: 0.681 ± 0.004

B4
stoichiometry N [10]: 4

B5
binding result [11]: binds
stoichiometry N (SEC): 4
